The target in assay [1] is T1, hu-IL-36β (human IL-36β, N-terminally truncated active form R5-E157) (human).
T1 construct: Purification tag cleaved off; Biotinylated where captured; also called hu-IL-36b
T1 chain: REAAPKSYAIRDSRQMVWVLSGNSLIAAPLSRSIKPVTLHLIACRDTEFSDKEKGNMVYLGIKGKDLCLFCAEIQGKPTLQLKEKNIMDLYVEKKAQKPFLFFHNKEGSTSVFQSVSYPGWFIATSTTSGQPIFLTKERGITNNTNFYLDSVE
In words: SPR (Biacore 8K), biotinylated IL-36 captured on CAP chip, Fab injected, 25°C. How it is done: (§1) Briefly, a 1:4 dilution of Biotin CAPture Reagent (GE Healthcare, Chicago, Ill., USA)) into HBS-EP buffer (GE Healthcare, Chicago, Ill., USA; 0.01 M HEPES pH 7.4, 0.15 M NaCl, 3 mM EDTA, 0.005% Surfactant P20) was applied to a CAP sensor chip at 2 μL/min flow rate. […] FC1 was kept as a reference. […] The sensorgram was recorded and subject to reference and buffer subtraction before data analysis with the BIACORE® 8K Evaluation Software (GE Healthcare, Chicago, Ill., USA; version 1.1.1.7442). Association rates (kₒₙ) and dissociation rates (koff) were calculated using a simple one-to-one Langmuir binding model. The equilibrium dissociation constant (KD) was calculated as the ratio of koff/kₒₙ.
For orientation: SPR reads the build-up and loss of mass on a sensor chip optically.

For assay [2], the target named is T1, hu-IL-36β (human IL-36β, N-terminally …). In words: SPR (Biacore 8K), biotinylated IL-36 captured on CAP chip, Fab injected, 37°C. How it is done: as §1
Assay [3] has as its target T2, hu-IL-36γ (human IL-36γ, N-terminally truncated active form S18-D169) (human, UniProt Q9NZH8 18-169).
T2 construct: Purification tag cleaved off; Biotinylated where captured; also called hu-IL-36g
T2 sequence: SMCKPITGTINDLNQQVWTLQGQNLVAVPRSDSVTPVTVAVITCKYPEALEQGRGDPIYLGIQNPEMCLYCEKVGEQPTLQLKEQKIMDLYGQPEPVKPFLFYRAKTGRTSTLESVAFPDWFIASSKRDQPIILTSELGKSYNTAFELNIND
In words: SPR (Biacore 8K), biotinylated hu-IL-36 captured on CAP chip, Fab injected, 37°C. The method, then:
(§2) Briefly, a 1:4 dilution of Biotin CAPture Reagent (GE) into HBS-EP buffer (0.01 M HEPES pH 7.4, 0.15 M NaCl, 3 mM EDTA, 0.005% Surfactant P20) was applied to a CAP sensor chip at 2 uL/min flow rate. For kinetics measurements, 3 nM biotinylated human IL-36α and human IL-36γ was captured at 10 uL/min to achieve ˜50 response units in the second flow cell (FC2). FC1 was kept as a reference. […] The sensorgram was recorded and subject to reference and buffer subtraction before evaluating by BIACORE® 8K Evaluation Software (version 1.1.1.7442). Association rates (kₒₙ) and dissociation rates (koff) were calculated using a simple one-to-one Langmuir binding model.

Assay [4] has as its target T3, hu-IL-36α (human IL-36α, N-terminally truncated active form K6-F158) (human, UniProt Q9UHA7 6-158).
T3 construct: Purification tag cleaved off; Biotinylated where captured (SPR, some ELISAs); also called hu-IL-36a
T3 sequence: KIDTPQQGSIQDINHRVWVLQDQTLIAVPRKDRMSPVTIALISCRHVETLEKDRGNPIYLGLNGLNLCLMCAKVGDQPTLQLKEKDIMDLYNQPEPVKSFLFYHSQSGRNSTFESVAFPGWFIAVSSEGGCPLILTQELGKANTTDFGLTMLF
Described as above. How it is done: as §2

Assay [5] concerns the target T3, hu-IL-36α (human IL-36α, N-terminally …). In words: phage competition ELISA: Fab on phage, soluble hu-IL-36α titrated against coated hu-IL-36α. The method, then: (§3) Selected phages with top binding signal were purified to perform phage competition ELISA. The optimal phage concentration was incubated with serially-diluted human IL-36α or human IL-36γ in ELISA buffer in NUNC F plate for two hours. 80 μL of the mixture was transferred to human IL-36α or human IL-36γ coated wells for 15 min to capture unbound phage. The plate was washed with wash buffer (0.05% TWEEN®20 in PBS), and HRP-conjugated anti-M13 antibody (Sino biological, Cat #11973-MM05-H-50) was added in ELISA buffer for 30 min. The plates were washed and developed as described above. The absorbance at 450 nm was plotted as a function of antigen concentration in solution to determine phage IC50.
For orientation: In an ELISA, binding on a coated surface is turned into a signal by an enzyme label.

Assay [6] addresses T2, hu-IL-36γ (human IL-36γ, N-terminally …). In words: cell-based or functional assay.
Assay [7] has as its target T3, hu-IL-36α (human IL-36α, N-terminally …). In words: cell-based or functional assay.
Assay [8] concerns the target T2, hu-IL-36γ (human IL-36γ, N-terminally …). In words: phage competition ELISA: Fab on phage, soluble hu-IL-36γ titrated against coated hu-IL-36γ. The method, then: as §3
Assay [9] shares this target. In words: SPR (Biacore 8K), biotinylated IL-36 captured on CAP chip, Fab injected, 25°C. How it is done:
as §1

The target of assay [10] is T3, hu-IL-36α (human IL-36α, N-terminally …). Described as above. The method, then: as §1
For assay [11], the target named is T2, hu-IL-36γ (human IL-36γ, N-terminally …). In words: SPR (Biacore 8K), biotinylated IL-36 captured on CAP chip, Fab injected, 37°C. How it is done: as §1
In assay [12] the target is T3, hu-IL-36α (human IL-36α, N-terminally …). Described as above. How it is done:
as §1

Assay [13] deals with T1, hu-IL-36β (human IL-36β, N-terminally …). In words: cell-based or functional assay.
Assay [14] shares this target. In words: ELISA, yeast Fab supernatant, anti-Fab-HRP.
Assay [15] shares this target. In words: cell-based or functional assay.

The values below come from patent US20230235040A1 (ALMIRALL S A, published 2023).

B1: mAb6.0 Fab (purified, lysyl-C cleaved from recombinant IgG1) (Fab, V domains shown)
VH: QLQLQESGPGLVKPSETLSLTCTVSGGSITSSNYYWGWIRQPPGKGLEWIGSIDYTGSTYYNPSLKSRVTISVDTSKNQFSLKLSSVTAADTAVYYCARGKYYETYLGFDVWGQGTLVTVSS
VL: QSVLTQPPSVSGAPGQRVTISCTGSSSNIGAGYDVHWYQQLPGTAPKLLIYGNTNRPSGVPDRFSGSKSGTSASLAITGLQAEDEADYYCQSYDISLSGWVFGGGTKLTVL
notes: also called purified mAb6.0 Fab
In the case of B1, in assay [1], the Kd (usually a measure of binding affinity in units of concentration) is 1.79 nM; the off-rate (koff) (usually a measure of how fast the partners let go of each other) stood at 7.23e-05 s⁻¹; the kon (in general, the second-order rate constant of association) was 40400 M⁻¹ s⁻¹. In [2], this molecule showed a Kd of 1.93 nM, a koff of 0.000118 s⁻¹ and a kon of 61100 M⁻¹ s⁻¹.

B2: mAb2 Fab (Fab, V domains shown)
VH: ELQLQESGPGLVKPSETLSLTCTVSGGSISTSSYYWGWIRQPPGKGLEWIGSIYYTGNTYYNPSLKSRVTISVDTSKNQFSLKLSSVTAADTAVYYCARVRYGVGVPRYFDPWGQGTLVTVSS
VL: ESVLTQPPSVSGAPGQRVTISCTGSSSNIGAHYDVHWYQQLPGTAPKLLIYGNDNRPSGVPDRFSGSKSGTSASLAITGLQAEDEADYYCQSYDYSLSGYVFGGGTKLTVL
Regarding B2, the “apparent Kd (pooled screen)” value in [3] was 0.41 nM; in [4], 0.23 nM. Moreover, the “apparent koff (pooled screen)” value stood at 0.000574 s⁻¹ in [3] and 0.000264 s⁻¹ in [4]. In addition, the “apparent kon (pooled screen)” value in assay [3] was 1.39e+06 M⁻¹ s⁻¹; in [4], 1.16e+06 M⁻¹ s⁻¹. In addition, the “apparent IC50 (pooled screen)” value in assay [5] came out at 1.2 nM; in assay [8], 3.2 nM. Further, the “IC50, IL-36-stimulated IL-8 secretion by HaCat cells” value (shortened to “IC50 … by HaCat cells”) in [6] turned out to be 0.96 nM; in [7] it was 0.3 nM.

B3: mAb2.11 Fab (Fab, V domains shown)
VH: ELQLQESGPGLVKPSETLSLTCTVSGGSISESSYYWGWIRQPPGKGLEWIGSIYYTGETYYAPSLKSRVTISVDTSKNQFSLKLSSVTAADTAVYYCARLRYGVGVPRYFDPWGQGTLVTVSS
VL: ESVLTQPPSVSGAPGQRVTISCTGSSSNIGAHYDVHWYQQLPGTAPKLLIYGNDNRPSGVPDRFSGSKSGTSASLAITGLQAEDEADYYCQSYDYSLSGYVFGGGTKLTVL
notes: Recombinant Fab with 8xHis tag (Expi293F)
Turning to B3, in assay [3], the Kd turned out to be 0.11 nM, the dissociation rate constant (koff) stood at 0.000214 s⁻¹ and the kon turned out to be 1.92e+06 M⁻¹ s⁻¹. In [4], the equilibrium dissociation constant (Kd) worked out at 0.13 nM, the off-rate constant (koff) was determined as 0.000244 s⁻¹ and the kon is 1.91e+06 M⁻¹ s⁻¹. The “IC50 … by HaCat cells” value in assay [6] was 1.05 nM. The “IC50 … by HaCat cells” value in assay [7] was determined as 0.42 nM.

B4: mAb2.10 Fab (Fab, V domains shown)
VH: ELQLQESGPGLVKPSETLSLTCTVSGGSISDSSYYWGWIRQPPGKGLEWIGSIYYTGETYYAPSLKSRVTISVDTSKNQFSLKLSSVTAADTAVYYCARVRYGVGVPRHFDPWGQGTLVTVSS
VL: ESVLTQPPSVSGAPGQRVTISCTGSSSNIGAHYDVHWYQQLPGTAPKLLIYGNDNRPSGVPDRFSGSKSGTSASLAITGLQAEDEADYYCQSYDYSLSGYVFGGGTKLTVL
notes: as for B3
Take B4: in assay [3], the Kd is 0.13 nM, the koff came to 0.00018 s⁻¹ and the kon came to 1.37e+06 M⁻¹ s⁻¹. In [4], this molecule registered a dissociation constant Kd of 0.15 nM, a koff of 0.000222 s⁻¹ and a kon of 1.49e+06 M⁻¹ s⁻¹. The “IC50 … by HaCat cells” value in [6] worked out at 1.09 nM. For the same molecule, the “IC50 … by HaCat cells” value in [7] came out at 0.38 nM.

B5: mAb2.0 Fab (purified, lysyl-C cleaved from recombinant IgG1) (Fab, V domains shown)
VH: QLQLQESGPGLVKPSETLSLTCTVSGGSISTSSYYWGWIRQPPGKGLEWIGSIYYTGNTYYNPSLKSRVTISVDTSKNQFSLKLSSVTAADTAVYYCARVRYGVGVPRYFDPWGQGTLVTVSS
VL: QSVLTQPPSVSGAPGQRVTISCTGSSSNIGAHYDVHWYQQLPGTAPKLLIYGNDNRPSGVPDRFSGSKSGTSASLAITGLQAEDEADYYCQSYDYSLSGYVFGGGTKLTVL
notes: also called purified mAb2.0 Fab
B5: the Kd in [9] was determined as 0.98 nM; in [10], 1.2 nM; in [11], 1.61 nM; in [12], 0.3 nM. In addition, the koff stood at 0.000358 s⁻¹ in assay [9], 0.000413 s⁻¹ in assay [10], 0.00108 s⁻¹ in assay [11] and 0.000502 s⁻¹ in assay [12]. Besides, the kon in assay [9] worked out at 366000 M⁻¹ s⁻¹; in assay [10], 345000 M⁻¹ s⁻¹; in assay [11], 671000 M⁻¹ s⁻¹; in assay [12], 1.69e+06 M⁻¹ s⁻¹.

B6: mAb8.0 Fab (yeast clone culture supernatant) (Fab, V domains shown)
VH: QVQLVQSGAEVKKPGSSVKVSCKASGGTFSNYAISWVRQAPGQGLEWMGGILPILGTVDYAQKFQGRVTITADESTSTAYMELSSLRSEDTAVYYCAREPWYRLGAFDVWGQGTLVTVSS
VL: DIQMTQSPSSLSASVGDRVTITCRASQTIYKYLNWYQQKPGKAPKLLIYAASSLQSGVPSRFSGSGSGTDFTLTISSLQPEDFATYYCQQYSSIPYTFGQGTKVEIK
notes: Human Fab secreted by the yeast clone, not purified
B6: the “% Inhibition, HEK-Blue IL-36R SEAP reporter assay” value in [13] turned out to be 85%. In assay [14], the “ELISA OD450” value worked out at 2.63 OD450.

B7: mAb8.0 recombinant human IgG1 (antibody, V domains shown)
VH: QVQLVQSGAEVKKPGSSVKVSCKASGGTFSNYAISWVRQAPGQGLEWMGGILPILGTVDYAQKFQGRVTITADESTSTAYMELSSLRSEDTAVYYCAREPWYRLGAFDVWGQGTLVTVSS
VL: DIQMTQSPSSLSASVGDRVTITCRASQTIYKYLNWYQQKPGKAPKLLIYAASSLQSGVPSRFSGSGSGTDFTLTISSLQPEDFATYYCQQYSSIPYTFGQGTKVEIK
As for B7, the “IC50, HEK-Blue IL-36R SEAP reporter assay” value in assay [15] is 0.34 nM.
